Publication PMC6814707 (Communications Biology, 2019)
Blank lines part the entries; values can stand above or below the binder they belong to.

Key:
[1] = target: recombinant human PD-1 protein (residues 21-167) (human) (UniProt Q15116); test: ELISA; blocking: plates coated with 0.5 ug/mL PD-1 (21-167); antibody from 3 ug/mL, 1.5-fold dilutions, 37 °C 120 min; then 1 ug/mL PD-L1-mFc, detected with HRP-anti-mouse Fc
[2] = target: T1, human PD-1 extracellular domain (residues 21-167) (Homo sapiens, UniProt Q15116, N-linked glycans seen at N49, N58 and N116 (N58: two N-acetylglucosamines, one fucose and two mannoses; N49 and N116: one N-acetylglucosamine modelled); N74 ambiguous); test: crystal structure; PD-1 (21-167) and MW11-h317 Fab mixed 1:2, complex purified on Superdex 200; crystals at 16 °C in 0.1 M Bis-Tris pH 6.5, 28% PEG monomethyl ether 2000; 2.9 Å; two complexes per asymmetric unit; conditions: both partners purified
T1 construct: Construct used for the complex with MW11-h317 Fab and its crystal structure; also called hPD-1; Programmed cell death protein 1; source: CHO cells, electrotransfected; purified from supernatant by a nivolumab-coupled resin
T1 sequence (Q15116 21-167): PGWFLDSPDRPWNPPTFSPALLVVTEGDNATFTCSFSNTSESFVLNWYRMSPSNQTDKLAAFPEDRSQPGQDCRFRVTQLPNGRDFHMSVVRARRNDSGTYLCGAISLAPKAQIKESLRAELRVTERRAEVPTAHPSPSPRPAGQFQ

recombinant human PD-1 protein (residues 21-167) (human), sequence (Q15116 21-167): as above

- IC50 [1]: 1.4 nM
B1: MW11-h317 (humanized anti-PD-1 monoclonal antibody) (antibody, V domains shown)
VH: EVQLVESGGGLVKPGGSLRLSCAASGFTFSSYDMSWVRQAPGKGLEWVATISGGGSYTYYPDSVKGRFTISRDNAKNSLYLQMNSLRAEDTAVYYCASPDSSGVAYWGQGTLVTVSS
VL: DIVMTQSPLSLPVTPGEPASITCKASQDVETVVAWYLQKPGQSPRLLIYWASTRHTGVPDRFSGSGSGTDFTLKISRVEAEDVGVYYCQQYSRYPWTFGQGTKLEIK

- stoichiometry N [2]: 1
B2: MW11-h317 Fab (Fab, V domains shown)
VH: B1 VH
VL: B1 VL
notes: heavy chain of the Fab in the structure deposited here (PDB 6JJP); light chain of the Fab in the structure deposited here (PDB 6JJP); The methods speak of plasmids encoding VL and VH; also called MW11-h317 Fab fragment; source: HEK 293, co-transfected with two plasmids; purified from supernatant (Protein G, HiTrap Capto S)
